Assay results taken from patent publication US20120237442A1 (published 2012).

How the values were obtained:
human CD20 [1] = biological target: T1, human CD20 (human, UniProt P11836 1-297); assay: ELISA, reference veltuzumab
T1 construct: whole, on cells
T1 sequence (looked up): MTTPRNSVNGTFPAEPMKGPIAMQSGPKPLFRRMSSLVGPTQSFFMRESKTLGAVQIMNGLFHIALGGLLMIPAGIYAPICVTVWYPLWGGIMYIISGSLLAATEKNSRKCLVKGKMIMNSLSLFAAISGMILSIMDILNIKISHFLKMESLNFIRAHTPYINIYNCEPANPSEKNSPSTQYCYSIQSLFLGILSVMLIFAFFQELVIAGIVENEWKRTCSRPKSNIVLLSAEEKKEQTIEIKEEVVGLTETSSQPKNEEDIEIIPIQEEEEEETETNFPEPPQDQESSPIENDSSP

human CD20 [2] = biological target: T1, human CD20; assay: flow cytometry on live NHL cells, reference veltuzumab

B1: 20-(20)-(20) (antibody)
heavy 1: not shown
heavy 2: not shown
light: DIQLTQSPSSLSASVGDRVTMTCRASSSVSYIHWFQQKPGKAPKPWIYATSNLASGVPVRFSGSGSGTDYTFTISSLQPEDIATYYCQQWTSNPPTFGGGTKLEIKRTVAAPSVFIFPPSDEQLKSGTASVVCLLNNFYPREAKVQWKVDNALQSGNSQESVTEQDSKDSTYSLSSTLTLSKADYEKHKVYACEVTHQGLSSPVTKSFNRGEC
modifications: DNL complex locked by disulfide bridges between the cysteines of AD2 and DDD2. Stoichiometry: 2 IgG-AD2 heavy chains, 4 Fd-DDD2 chains, 6 kappa chains. Each unique chain is listed once.
notes: One Fc and 6 anti-CD20 Fabs; also called Hex-hA20; HexAb of veltuzumab
fold higher binding avidity compared to veltuzumab (human CD20 [1]): 3 fold
fold slower off-rate compared to veltuzumab (human CD20 [2]): 3 fold
